Test results as given in patent publication US20260258124A1 (CIMEIO THERAPEUTICS, published 2026).
Where a chain is given by its changes, count along the chain named.

B1: Dreieckhorn (antibody, V domains shown)
VH: QVQLVQSGAEVKKPGASVKVSCKASGYTFTSYNMHWVRQAPGQGLEWMGVIYSGQGDTSYNQKFKGRVTMTTDTSTSTAYMELRSLTSDDTAVYYCARERDTRFGNWGQGTLVTVSA
VL: EIVLTQSPSSLSASVGDRVTITCRASESVDIYGESFMHWYQQKPGKAPKLLIYSASNLESGVPSRFSGSGSGTDFTLTISSLQPEDFATYYCQQNREEPYTFGQGTKLEIK
notes: IgG; also called VH1.4/VL1.32
B2: Balmhorn (antibody, V domains shown)
VH: B1 VH
VL: EIVLTQSPSSLSASVGDRVTITCRASESVDIYGESFMHWYQQKPGKAPKLLIYLASNLESGVPSRFSGSGSGTDFTLTISSLQPEDFATYYCQQNKEEPYTFGQGTKLEIKR
notes: IgG; also called VH1.4/VL1.19
B3: Piz Morteratsch (antibody, V domains shown)
VH: B1 VH
VL: B1 VL with S54Q
notes: IgG; also called VH1.4/VL1.33
B4: Nesthorn (antibody, V domains shown)
VH: B1 VH
VL: B1 VL with S54E
notes: IgG; also called VH1.4/VL1.31
B5: Piz Palü (antibody, V domains shown)
VH: B1 VH
VL: B1 VL with S54H
notes: IgG; also called VH1.4/VL1.30

Biological target: T1, human recombinant CD117 (c-Kit) from Sino Biological (Catalog No. 11996-H08H) (human, UniProt P10721 26-524)
T1 construct: also called soluble antigen
T1 sequence (P10721 26-524 limits assumed): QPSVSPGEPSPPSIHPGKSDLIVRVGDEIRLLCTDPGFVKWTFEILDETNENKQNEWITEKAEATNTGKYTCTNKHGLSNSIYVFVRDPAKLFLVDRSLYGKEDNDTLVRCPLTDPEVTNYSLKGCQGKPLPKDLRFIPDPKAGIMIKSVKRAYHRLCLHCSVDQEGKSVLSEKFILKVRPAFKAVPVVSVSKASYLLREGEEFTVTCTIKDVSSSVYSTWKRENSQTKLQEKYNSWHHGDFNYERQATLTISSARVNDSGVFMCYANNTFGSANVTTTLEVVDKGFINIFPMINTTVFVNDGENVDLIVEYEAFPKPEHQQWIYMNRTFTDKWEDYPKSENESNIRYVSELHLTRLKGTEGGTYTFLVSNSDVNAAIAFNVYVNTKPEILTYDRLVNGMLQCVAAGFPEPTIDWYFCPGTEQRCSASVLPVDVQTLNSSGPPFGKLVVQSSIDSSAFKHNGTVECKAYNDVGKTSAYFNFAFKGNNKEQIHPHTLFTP
Assay: BLI Octet, set-up as in Example 2
Protocol: IgG antibodies were immobilized on biosensors using suitable capture surfaces and binding of soluble antigen to immobilized antibodies was monitored by BLI (Octet). The resulting sensorgrams were analyzed using the supplied software (Fortebio). As antigen human recombinant CD117 (c-Kit) from Sino Biological was used (Catalog No. 11996-H08H, Lot #LC14SE0812). As a pre-experiment a series of experiments was performed to optimize assay parameters. The following parameters were selected:
In the main experiment kinetic assays were performed by first capturing IgG using anti-human Fc biosensors. The mAb capture biosensors were then submerged in wells containing different concentrations of antigen (association stage) followed by a dissociation step in running buffer. To allow for double reference correction, IgG-captured sensors were dipped into wells containing only buffer and blank sensors were also dipped into wells containing the antigen. This referencing provided a means of compensating for both the natural dissociation of the capture IgG and non-specific binding of the antigen to the sensor surface. Steps were performed at 25° C. at a constant shaking of 1000 rpm. New sensors were used for each sample. Dissociation rate constants (Kd) were calculated using the ForteBio Data Analysis software. All consumables used were those recommended by ForteBio.

binding result	Binder
binds	B1
binds	B2
binds	B3
binds	B4
binds	B5
